# Biological target: the molecule itself
# Assay: dynamic light scattering; self-assembly into nanospheres; 0.4 mg/mL, pH 8, 25 mM Tris buffer, 22°C; Rayleigh sphere model, sphere-equivalent hydrodynamic radii
protein,measurement,value
"rp(H)M180, recombinant His-tagged mouse amelogenin M180 (natural protein, UniProt P63277-1 17-196, looked up, Assembles into nanospheres at pH 8; also called wild type mouse amelogenin; mAmelx; source: E. coli (pQE30), purified (Ni-NTA); not shown: poly-histidine, N-terminal, kept) MPLPPHPGSPGYINLSYEVLTPLKWYQSMIRQPYPSYGYEPMGGWLHHQIIPVLSQQHPPSHTLQPHHHLPVVPAQQPVAPQQPMMPVPGHHSMTPTQHHQPNIPPSAQQPFQQPFQPQAIPPQSHQPMQPQSPLHPMQPLAPQPPLPPLFSMQPLSPILPELPLEAWPATDKTKREEVD",binding result,binds

# — paper PMC3060920, “Structural Analysis of a Repetitive Protein Sequence Motif in Strepsirrhine Primate Amelogenin” (PLoS ONE, 2011)
